Data: patent US8409583B2, “Engineered versions of CgtB (β-1,3 galactosyltransferase) enzymes, with enhanced enzymatic properties” (National Research Council of Canada, priority 2007, dated 2013)

What was measured:
Type in all cases: biochemical
[1] = CgtB activity assay (capillary electrophoresis), acceptor GalNAcα-FCHASE; conditions: for Relative activity (%): GalNAcα-FCHASE at 0.5 mM, reference (100%) GM2-FCHASE for CgtBOH4384 and CgtB11168, GA2-FCHASE for CgtBHS:10, average of two experiments; for Specific Activity (mU/mg) on a given FCHASE-labeled acceptor: purified enzyme, 3 mM GalNAcα-FCHASE
Method: (§1) The oligosaccharide acceptors and the interferon alpha 2b (IFNα2b) peptide (VGVTETP, corresponding to positions 103-109 of the mature IFNα2b protein) were labeled with FCHASE as previously described (Wakarchuk, W. et al., J Biol. Chem. 271:19166-19173 (1996)). IFNα2b-FCHASE was purified by reverse-phase chromatography using a PRP-1 column (10×250 mm, Hamilton Company, Reno, Nev.) in 10 mM ammonium acetate pH 5.5 with a gradient of acetonitrile (0-100% over 4 column volumes). […] All reactions were stopped by addition of 10 μL of 50% acetonitrile, 10 mM EDTA and 1% SDS and were diluted with H2O to obtain 10-15 μM final concentration of the FCHASE-labeled compounds. The samples were analyzed by capillary electrophoresis as described previously (Wakarchuk, W. W. et al., Methods Mol. Biol. 213:263-274 (2003)) except that a P/ACE MDQ Capillary Electrophoresis System equipped with a Laser module 488 (Beckman Coulter, Calif.) was used. Quantitation of the reactions was performed by integration of the trace peaks using the MDQ 32 Karat software.

[2] = CgtB activity assay (capillary electrophoresis), acceptor GalNAcβ-FCHASE; conditions: for Relative activity (%): GalNAcβ-FCHASE at 0.5 mM, reference (100%) GM2-FCHASE for CgtBOH4384 and CgtB11168, GA2-FCHASE for CgtBHS:10, average of three experiments; for Specific Activity (mU/mg) on a given FCHASE-labeled acceptor: purified enzyme, 3 mM GalNAcβ-FCHASE
Method: as §1

[3] = CgtB activity assay (capillary electrophoresis), acceptor GM2-FCHASE; conditions: for Relative activity (%): GM2-FCHASE at 0.5 mM, reference (100%) GM2-FCHASE for CgtBOH4384 and CgtB11168, GA2-FCHASE for CgtBHS:10, average of three experiments; for Specific Activity (mU/mg) on a given FCHASE-labeled acceptor: purified enzyme, 1 mM GM2-FCHASE
Method: (§2) The oligosaccharide acceptors and the interferon alpha 2b (IFNα2b) peptide (VGVTETP, corresponding to positions 103-109 of the mature IFNα2b protein) were labeled with FCHASE as previously described (Wakarchuk, W. et al., J Biol. Chem. 271:19166-19173 (1996)). IFNα2b-FCHASE was purified by reverse-phase chromatography using a PRP-1 column (10×250 mm, Hamilton Company, Reno, Nev.) in 10 mM ammonium acetate pH 5.5 with a gradient of acetonitrile (0-100% over 4 column volumes). CgtB activity assays were done in cell lysates or using purified enzyme in 50 mM MES pH 6.0, 0.5 mM of FCHASE-acceptor (unless otherwise indicated), 10 mM MnCl2, 10 mM DTT, 1 mM UDP-Gal at 37° C. from 5 to 30 minutes. All reactions were stopped by addition of 10 μL of 50% acetonitrile, 10 mM EDTA and 1% SDS and were diluted with H2O to obtain 10-15 μM final concentration of the FCHASE-labeled compounds. The samples were analyzed by capillary electrophoresis as described previously (Wakarchuk, W. W. et al., Methods Mol. Biol. 213:263-274 (2003)) except that a P/ACE MDQ Capillary Electrophoresis System equipped with a Laser module 488 (Beckman Coulter, Calif.) was used. Quantitation of the reactions was performed by integration of the trace peaks using the MDQ 32 Karat software.

[4] = CgtB activity assay (capillary electrophoresis), acceptor lyso-GM2-FCHASE; conditions: lysoGM2-FCHASE at 0.5 mM; reference (100%) GM2-FCHASE for CgtBOH4384 and CgtB11168, GA2-FCHASE for CgtBHS:10; average of three experiments
Method: as §2

[5] = CgtB activity assay (capillary electrophoresis), acceptor GA2-FCHASE; conditions: GA2-FCHASE at 0.5 mM; reference (100%) GM2-FCHASE for CgtBOH4384 and CgtB11168, GA2-FCHASE for CgtBHS:10; average of two experiments
Method: as §2

[6] = test system: IFNα2b[Tn]-FCHASE; assay: CgtB activity assay (capillary electrophoresis), glycopeptide acceptor IFNα2b[Tn]-FCHASE; conditions: purified enzyme; 1 mM IFNα2b[Tn]-FCHASE
Method: as §2
The IFNα2b protein was purchased from Cell Sciences (Canton, Mass.). […]

| Molecule | Relative activity (%) [1] | Specific Activity (mU/mg) on a given FCHASE-labeled acceptor [1] | Relative activity (%) [2] | Specific Activity (mU/mg) on a given FCHASE-labeled acceptor [2] | Relative activity (%) [3] | Specific Activity (mU/mg) on a given FCHASE-labeled acceptor [3] | Relative activity (%) [4] | Relative activity (%) [5] | Specific Activity (mU/mg) on a given FCHASE-labeled acceptor [6] |
| --- | --- | --- | --- | --- | --- | --- | --- | --- | --- |
| CJL-10: Full length CgtB β-1,3-galactosyltransferase from C. jejuni OH4384 fused to E. coli MalE (maltose binding protein) at the N-terminus (protein, left off: large carriers) MFKISIILPTYNVEQYIARAIESCINQTFKDIEIIVVDDCGNDNSINIAKEYSKKDKRIKIIHNEKNLGLLRARYEGVKVANSPYIMFLDPDDYLELNACEECIKILDEQDEVDLVFFNAIVESNVISYKKFDFNSGFYSKKEFVKKIIAKKNLYWTMWGKLIRKKLYLEAFASLRLEKDVKINMAEDVLLYYPMLSQAQKIAYMNCNLYHYVPNNNSICNTKNEVLVKNNIQELQLVLNYLRQNYILNKYCSVLYVLIKYLLYIQIYKIKRTKLMVTLLAKINILTLKILFKYKKFLKQC | 6.4^3% | 158^1 mU/mg | 47.5^4% | 192 mU/mg | 100^4% | 210 mU/mg | 444^4% | 29^3% | 83.5 mU/mg |
| CJL-20: Full length CgtB from C. jejuni NCTC 11168 fused to MalE at the N-terminus (protein, left off: large carriers, Full length CgtB from C. jejuni NCTC 11168 fused to MalE at the N-terminus) MSQISIILPTYNVEKYIARALESCINQTFKDIEIIVVDDCGNDKSIDIAKEYASKDDRIKIIHNEENLKLLRARYEGAKVATSPYIMFLDSDDYLELNACEECIKILDMGGGGKIDLLCFEAFITNAKKSIKKLNIKQGKYNNKEFTMQILKTKNPFWTMWAKIIKKDIYLKAFNMLNLKKEIKINMAEDALLYYPLTILSNEIFYLTQPLYTQHVNSNSITNNINSLEANIQEHKIVLNVLKSIKNKKTPLYFLIIYLLKIQLLKYEQNFNKRNINLIYYKINILYQKYQFKWKKFLYNLIP | 3.0^3% | 13.6 mU/mg | 50.5^4% | 40.4 mU/mg | 100^4% | 27 mU/mg | 606.2^4% | 8.8^3% | – |
